Results published in US20040265963.

Test system: T1, Tkip (tyrosine kinase inhibitor peptide), WLVFFVIFYFFR
T1 sequence: WLVFFVIFYFFR

recombinant human Src
c-src tyrosine phosphorylation of a synthetic substrate peptide, in vitro kinase assay: Tkip at 50 µM failed to inhibit c-src phosphorylation of a protein substrate
